Reference: patent publication US10434147B2, “Treatment type 2 diabetes mellitus patients” (Sanofi-Aventis Deutschland GmbH, priority 2015, dated 2019)

System: Patients with Type 2 Diabetes Insufficiently Controlled with Insulin Glargine with or without Metformin
Assay: Treatment-emergent adverse events, 26-week study
Type: in vivo, human
Description: FIG. 6—Graphical study design. ^1 Insulin glargine should be injected subcutaneously once daily at dinner or breakfast time (according to patient's/investigators' preference). […] Meal used for insulin glulisine dosing should remain the same throughout the 26-week treatment period. ^4 Injection of insulin glulisine prior to breakfast, lunch and dinner.
Co-primary endpoints at 26 weeks were (1) non-inferiority (95% CI upper bound <0.4%) in HbA1c reduction with LIXI vs GLU-1 and (2) for LIXI vs GLU-3, either non-inferiority in HbA1c reduction (2a) OR superiority (one-sided α≤0.025) in body weight change (2b). FPG, PPG, IG dose, composite outcomes, AEs, and hypoglycemia were assessed.

[1] = Safety population, PT ≥ 3% table

Insulin Glulisine QD: insulin glulisine once daily, added to insulin glargine ± metformin (comparator arm)
Patients with any TEAE leading to death (Safety population): 0 n (%)
Patients with treatment emergent SAE: Accidental overdose (Safety population): 2 (0.7%) n (%)
Patients with TEAE: Accidental overdose [1]: 13 (4.3%) n (%)
Patients with TEAE: Headache [1]: 8 (2.7%) n (%)
Patients with TEAE: Hypoglycaemia [1]: 140 (46.5%) n (%)
Patients with TEAE: Infections and infestations (SOC) [1]: 70 (23.3%) n (%)
Patients with TEAE: Influenza [1]: 8 (2.7%) n (%)
Patients with TEAE: Injury, poisoning and procedural complications (SOC) [1]: 20 (6.6%) n (%)
Patients with TEAE: Investigations (SOC) [1]: 76 (25.2%) n (%)
Patients with TEAE: Metabolism and nutrition disorders (SOC) [1]: 143 (47.5%) n (%)
Adjudicated by PSAC: Acute on chronic pancreatitis (in vivo): 0 n (%)
Adjudicated by PSAC: Acute pancreatitis (in vivo): 0 n (%)
Adjudicated by PSAC: Chronic pancreatitis (in vivo): 0 n (%)
Adjudicated by PSAC: Unknown pancreatitis (in vivo): 0 n (%)
Gastrointestinal AEs: Diarrhea (in vivo): 10 (3) n (%)
Gastrointestinal AEs: Nausea (in vivo): 5 (2) n (%)
Gastrointestinal AEs: Vomiting (in vivo): 5 (2) n (%)
Patients with TEAE on the specific adverse event form for increased calcitonin (>=20 ng/L): Any (in vivo): 0 n (%)
Patients with TEAE on the specific adverse event form for increased calcitonin (>=20 ng/L): Blood calcitonin increased (in vivo): 0 n (%)
Patients with TEAE: Any class (in vivo): 222 (73.8%) n (%)
Patients with TEAE: Blood glucose decreased (in vivo): 67 (22.3%) n (%)
Patients with TEAE: Diarrhoea (in vivo): 10 (3.3%) n (%)
Patients with TEAE: Gastrointestinal disorders (SOC) (in vivo): 26 (8.6%) n (%)
Patients with TEAE: Nasopharyngitis (in vivo): 21 (7.0%) n (%)
Patients with TEAE: Nausea (in vivo): 5 (1.7%) n (%)
Patients with TEAE: Nervous system disorders (SOC) (in vivo): 22 (7.3%) n (%)
Patients with TEAE: Upper respiratory tract infection (in vivo): 5 (1.7%) n (%)
Patients with TEAE: Vomiting (in vivo): 5 (1.7%) n (%)
Patients with any TEAE (in vivo): 222 (73.8%) n (%)
Patients with any TEAE leading to permanent treatment discontinuation (in vivo): 2 (0.7%) n (%)
Patients with any treatment emergent SAE (in vivo): 11 (3.7%) n (%)
Patients with events adjudicated as allergic reaction by ARAC: All, Any category, Any event (in vivo): 0 n (%)
Patients with events adjudicated as allergic reaction by ARAC: OTHER ALLERGIC REACTION, Rhinitis allergic (in vivo): 0 n (%)
Patients with events adjudicated as allergic reaction by ARAC: Possibly Related to IMP, Any event (in vivo): 0 n (%)
Patients with events adjudicated as allergic reaction by ARAC: URTICARIA (HIVES), Urticaria (in vivo): 0 n (%)
Patients with treatment emergent SAE: Abdominal pain (in vivo): 0 n (%)
Patients with treatment emergent SAE: Angina pectoris (in vivo): 0 n (%)
Patients with treatment emergent SAE: Angina unstable (in vivo): 1 (0.3%) n (%)
Patients with treatment emergent SAE: Ankle fracture (in vivo): 1 (0.3%) n (%)
Patients with treatment emergent SAE: Any class (in vivo): 11 (3.7%) n (%)
Patients with treatment emergent SAE: Atrial fibrillation (in vivo): 1 (0.3%) n (%)
Patients with treatment emergent SAE: Atrioventricular block complete (in vivo): 0 n (%)
Patients with treatment emergent SAE: Basal cell carcinoma (in vivo): 0 n (%)
Patients with treatment emergent SAE: Cardiac disorders (SOC) (in vivo): 3 (1.0%) n (%)
Patients with treatment emergent SAE: Cardiac failure chronic (in vivo): 0 n (%)
Patients with treatment emergent SAE: Cardiac failure congestive (in vivo): 0 n (%)
Patients with treatment emergent SAE: Cellulitis (in vivo): 1 (0.3%) n (%)
Patients with treatment emergent SAE: Cerebrovascular accident (in vivo): 0 n (%)
Patients with treatment emergent SAE: Decreased appetite (in vivo): 0 n (%)
Patients with treatment emergent SAE: Dehydration (in vivo): 1 (0.3%) n (%)
Patients with treatment emergent SAE: Diabetic bullosis (in vivo): 0 n (%)
Patients with treatment emergent SAE: Epigastric discomfort (in vivo): 0 n (%)
Patients with treatment emergent SAE: Erysipelas (in vivo): 0 n (%)
Patients with treatment emergent SAE: Gastric ulcer haemorrhage (in vivo): 0 n (%)
Patients with treatment emergent SAE: Gastrointestinal disorders (SOC) (in vivo): 0 n (%)
Patients with treatment emergent SAE: Hepatic mass (in vivo): 0 n (%)
Patients with treatment emergent SAE: Hepatobiliary disorders (SOC) (in vivo): 0 n (%)
Patients with treatment emergent SAE: Hypertension (in vivo): 0 n (%)
Patients with treatment emergent SAE: Hypoglycaemia (in vivo): 1 (0.3%) n (%)
Patients with treatment emergent SAE: Hypoglycaemic unconsciousness (in vivo): 2 (0.7%) n (%)
Patients with treatment emergent SAE: Incisional hernia (in vivo): 1 (0.3%) n (%)
Patients with treatment emergent SAE: Infections and infestations (SOC) (in vivo): 1 (0.3%) n (%)
Patients with treatment emergent SAE: Injury, poisoning and procedural complications (SOC) (in vivo): 4 (1.3%) n (%)
Patients with treatment emergent SAE: Invasive ductal breast carcinoma (in vivo): 0 n (%)
Patients with treatment emergent SAE: Metabolism and nutrition disorders (SOC) (in vivo): 2 (0.7%) n (%)
Patients with treatment emergent SAE: Myocardial infarction (in vivo): 1 (0.3%) n (%)
Patients with treatment emergent SAE: Myocardial ischaemia (in vivo): 0 n (%)
Patients with treatment emergent SAE: Neoplasm malignant (in vivo): 0 n (%)
Patients with treatment emergent SAE: Neoplasms benign, malignant and unspecified (incl cysts and polyps) (SOC) (in vivo): 0 n (%)
Patients with treatment emergent SAE: Nervous system disorders (SOC) (in vivo): 3 (1.0%) n (%)
